# Test results reported in patent US8221773B2, “Hydrogels and uses thereof” (University of Delaware, priority 2004, dated 2012).
# Where no end group is shown, it is not given here.
# Assays:
# [1] = Temperature dependent CD: temperature at which folding and self-assembly is triggered (Tgel); type: physicochemical; conditions: pH 9 and low (20 mM) salt
# Source text: At low temperature MAX1 is unfolded (and unassembled). At high temperature MAX1 folds into beta-sheet (and consequently self-assembles into a hydrogel). […] The relative hydrophobicity is MAX1>MAX2>MAX3 due to the isostructural but less hydrophobic substitutions of threonine for valine at the underlined positions. The most hydrophobic folds at the lowest temperature while the least hydrophobic folds at the highest temperature. This is a direct manifestations of the molecular parameter manipulations described in FIG. 2. Also shown are the calculated free energy of transfer of each corresponding unfolded peptide having an overall +8 charge state from octanol into water at 25° C. MAX1, the most hydrophobic has the highest free energy of transfer equal to 7.60 kcal/mol. MAX2 has a calculated transfer free energy of 6.88 kcal/mol, while the least hydrophobic MAX3 has the lowest energy of transfer of 6.45 kcal/mol.
# This allows the characteristics of the hydrogels of the invention to be varied by adjusting these parameters. […] It is well known that water is better able to solvate hydrophobic groups at low temperatures. This phenomenon has been used to describe the cold denaturation of proteins where some proteins unfold at low temperatures, exposing their hydrophobic interiors to aqueous solvent. A 150 μM aqueous solution of MAX1 unfolds when cooled below room temperature. The CD spectrum at 5° C. is consistent with random coil conformation, FIG. 9A. However, warming the solution to 40° C. results in a spectra consistent with β-sheet structure. […] In fact, previous studies involving the pH induced folding and self-assembly of MAX1 were performed at 20° C. At this temperature, folding and self-assembly are slow enough to be conveniently monitored. At higher temperatures, folding and self: assembly leading to hydrogelation is fast (instantaneous to seconds depending on concentration). If the formation of hydrophobic interactions affects the folding and self-assembly process, then altering the hydrophobic content of MAX1 should affect the temperature at which folding is triggered. […] MAX2 is identical to MAX1 except that one valine residue has been replaced with the isostructural, but less hydrophobic residue, threonine. In MAX3, two valines are replaced with threonine residues. The resulting peptides vary in their hydrophobicity as evident by comparing calculated free energies of transfer from octanol into water, FIG. 9. […] Thus, the formation of hydrophobic contacts influences folding and self-assembly. […] Thus, the characteristics of the hydrogels of the invention can be varied by adjusting the amino acid residues of the peptides used to form the hydrogels to increase or decrease the hydrophobicity of the amino acid residues used.
# There are reports of large polymers that are thermally responsive. The present invention provides the first system that employs temperature triggered folding to induce self-assembly. […] Heating the solution to 80° C. results in a spectra consistent with β-sheet structure. […] The temperatures used in both CD and rheology bracket the temperature (Tgel=60° C., FIG. 9) at which folding and consequent self-assembly is triggered. […] For example, free flowing peptide solutions could be prepared at room temperature and administered in vivo where the temperature of the body could induce gelation. […]
# [2] = CD spectroscopy of peptide folding (random coil vs β-sheet); type: physicochemical
# Method: Time-dependent circular dichroism (CD) studies support a hydrogelation mechanism consistent with intramolecular hairpin formation followed by self-assembly. […] At temperatures >25° C. the folding and self-assembly of MAX1 occurs on the order of seconds. […] This behavior is consistent across all spectro- and microscopic methods used to interrogate MAX1. For example, at micromolar concentrations used for the CD studies shown in FIGS. 4A and 4B, self-assembly takes hours at 20° C. At millimolar concentrations, such as those used in the rheological studies described below, self-assembly leading to hydrogel takes minutes at 20° C.
# The reversibility of the folding and self-assembly process was investigated by measuring θ216 as a function of pH and time as shown in FIG. 4C. CD of a stirred solution of MAX1 at pH 5.5 indicates random coil conformation. Adjusting the pH to 9.0 by the addition of NaOH results in β-sheet formation as expected. However, subsequent adjustment of the pH to 6.0 results in complete loss of sheet signal and full recovery of random coil signal. […] Again, this reversible behavior is not observed in hydrogels formed from amyloid/prion-like fibrils.
# In some embodiments of the invention, various functionalities (e.g., cell adhesion epitopes, receptor agonists, receptor antagonists, ligands, small molecules, etc) may be incorporated into the hairpin hydrogel scaffold. One way to accomplish this would be to functionalize one or more amino acid side chains of the peptide. […] In some embodiments, the moieties to be incorporated at a particular side chain may be much larger (e.g. RGD-based motifs) and may contain charged residues. MAX5 (VKVKVKVKV^DPPTKVKEKVKV-NH2) was prepared to investigate the possibility of incorporating a charged residue on the hydrophobic face of MAX1. The sequence contains a glutamic acid residue at position 16 which is negatively charged at basic pH where MAX1 normally folds and assembles. […] However, alterations to the hydrophilic face of MAX1 are well tolerated. Sequences in which one or two lysine residues are replaced with other residues such as cysteine, serine, and glutamic acid are capable of folding and self-assembly into rigid hydrogels (data not shown).
# The peptides described above contain identical turn sequences, namely (-V^DPPT-). This sequence has a strong propensity to form a type II′ turn and therefore helps to drive intramolecular folding. Since intramolecular folding must occur prior to self-assembly, alterations to this turn sequence that inhibit turn structure formation can be used to modulate intramolecular folding and self-assembly leading to hydrogelation. MAX9 was prepared to probe the importance of the turn region (VKVKVKVKV^LPPTKVKVKVKV-NH2). […]
sequence,measurement,setting,value
VKVKVKVK V^DPPT KVKVKVKV-NH2 (not fully specified (C-terminus)) [MAX1],transition temperature from random coil to folded β-sheet structure,[1],around 25 °C
same,time to plateau of β-sheet formation (ellipticity at 218 nm),"[2]; 2.0 wt %, pH 7.4, 150 mM KF, 37° C",15 min
same,reversibility of folding and self-assembly with pH,"[2]; stirred 300 μM solution, pH 5.5 to 9.0 to 6.0, 20° C",reversible
